Article PMC8213707, “Structural basis for the ARF GAP activity and specificity of the C9orf72 complex” (Nature Communications, 2021)

T1: SMCR8 of the STREP-STREP-FLAG-ARF1-SMCR8 fusion (UniProt Q8TEV9 1-937)
T1 construct: SMCR8; In the structure its N-terminus is joined to the C terminus of ARF1 E17-K181, which carries the N-terminal STREP-STREP-FLAG tag, on one chain; also called Smith-Magenis chromosome regions 8
T1 sequence: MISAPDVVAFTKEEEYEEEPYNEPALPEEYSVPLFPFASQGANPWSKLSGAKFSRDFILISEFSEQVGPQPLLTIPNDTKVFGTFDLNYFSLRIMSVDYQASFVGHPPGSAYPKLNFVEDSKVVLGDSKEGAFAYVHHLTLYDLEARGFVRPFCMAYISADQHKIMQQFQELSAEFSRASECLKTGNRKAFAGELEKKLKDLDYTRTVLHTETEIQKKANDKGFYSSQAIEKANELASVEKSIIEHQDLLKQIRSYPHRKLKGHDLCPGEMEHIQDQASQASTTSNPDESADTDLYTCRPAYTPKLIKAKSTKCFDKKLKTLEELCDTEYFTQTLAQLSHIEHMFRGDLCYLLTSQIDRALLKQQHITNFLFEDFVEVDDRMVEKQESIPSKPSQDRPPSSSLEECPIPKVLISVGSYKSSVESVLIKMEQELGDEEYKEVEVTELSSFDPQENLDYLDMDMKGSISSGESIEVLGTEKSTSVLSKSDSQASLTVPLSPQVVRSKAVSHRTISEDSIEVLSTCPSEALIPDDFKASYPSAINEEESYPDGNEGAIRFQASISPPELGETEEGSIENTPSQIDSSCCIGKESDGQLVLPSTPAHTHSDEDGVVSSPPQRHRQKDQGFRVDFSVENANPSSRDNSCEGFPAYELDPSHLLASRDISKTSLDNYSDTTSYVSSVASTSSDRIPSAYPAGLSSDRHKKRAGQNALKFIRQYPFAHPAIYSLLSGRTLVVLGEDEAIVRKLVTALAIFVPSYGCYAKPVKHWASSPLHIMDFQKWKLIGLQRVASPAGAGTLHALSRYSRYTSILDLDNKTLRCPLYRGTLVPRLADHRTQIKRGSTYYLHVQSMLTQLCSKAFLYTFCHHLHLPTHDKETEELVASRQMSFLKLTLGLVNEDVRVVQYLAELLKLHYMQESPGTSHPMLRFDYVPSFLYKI

B1: C9orf72 (subunit of the C9orf72:ARF1-SMCR8:WDR41 complex) (natural protein)
chain: MSTLCPPPSPAVAKTEIALSGKSPLLAATFAYWDNILGPRVRHIWAPKTEQVLLSDGEITFLANHTLNGEILRNAESGAIDVKFFVLSEKGVIIVSLIFDGNWNGDRSTYGLSIILPQTELSFYLPLHRVCVDRLTHIIRKGRIWMHKERQENVQKIILEGTERMEDQGQSIIPMLTGEVIPVMELLSSMKSHSVPEEIDIADTVLNDDDIGDSCHEGFLLNAISSHLQTCGCSVVVGSSAEKVNKIVRTLCLFLTPAERKCSRLCEAESSFKYESGLFVQGLLKDSTGSFVLPFRQVMYAPYPTTHIDVDVNTVKQMPPCHEHIYNQRRYMRSELTAFWRATSEEDMAQDTIIYTDESFTPDLNIFQDVLHRDTLVKAFLDQVFQLKPGLSLRSTFLAQFLLVLHRKALTLIKYIEDDTQKGKKPFKSLRNLKIDLDLTAEGDLNIIMALAEKIKPGLHSFIFGRPFYTSVQERDVLMTF
notes: C9orf72; not shown: GST, N-terminal, cleaved

Tests used:
Conditions in all cases: both partners purified
[1] = target: T1, SMCR8 of the …; experiment: cryo-EM structure; chimeric C9orf72:ARF1-SMCR8:WDR41 complex, GDP-bound, incubated with BeF3^- overnight; 20 mM HEPES pH 7.4, 200 mM NaCl, 2 mM MgCl2, 0.5 mM TCEP; 3.9 Å reconstruction
[2] = target: B1; experiment: as above
[3] = target: T2, C9orf72:SMCR8:WDR41 complex (wild type) (UniProt Q96LT7 1-481; Q8TEV9 1-937; Q9HAD4 1-459); experiment: SEC; 15 μM C9orf72:SMCR8:WDR41 incubated with 15-fold ARF1^Q71L in 500 μl overnight, injected into Superose 6 Increase 10/300
T2 construct: C9orf72; SMCR8 (Smith-Magenis chromosome regions 8); WDR41 (WD repeat-containing protein 41), cloned without a tag; The methods describe the purification for the fusion complex; also called C9orf72 complex; GAP complex; not shown: GST, N-terminal, cleaved; copies: + +

binding result [1]	binding result [2]	binding result [3]	Binder
binds	binds		ARF1 (residues E17-K181) of the STREP-STREP-FLAG-ARF1-SMCR8 fusion (domain or fragment, ARF1, residues E17-K181; In the structure this ARF1 is joined by its C terminus to the N-terminus of SMCR8 on one chain (STREP-STREP-FLAG-ARF1-SMCR8, inserted by KpnI sites); also called ARF1-GDP-BeF3^-) not shown
binds			WDR41 (subunit of the C9orf72:ARF1-SMCR8:WDR41 complex) (natural protein, WDR41, cloned without a tag; also called WD repeat-containing protein 41) MLRWLIGGGREPQGLAEKSPLQTIGEEQTQNPYTELLVLKAHHDIVRFLVQLDDYRFASAGDDGIVVVWNAQTGEKLLELNGHTQKITAIITFPSLESCEEKNQLILTASADRTVIVWDGDTTRQVQRISCFQSTVKCLTVLQRLDVWLSGGNDLCVWNRKLDLLCKTSHLSDTGISALVEIPKNCVVAAVGKELIIFRLVAPTEGSLEWDILEVKRLLDHQDNILSLINVNDLSFVTGSHVGELIIWDALDWTMQAYERNFWDPSPQLDTQQEIKLCQKSNDISIHHFTCDEENVFAAVGRGLYVYSLQMKRVIACQKTAHDSNVLHVARLPNRQLISCSEDGSVRIWELREKQQLAAEPVPTGFFNMWGFGRVSKQASQPVKKQQENATSCSLELIGDLIGHSSSVEMFLYFEDHGLVTCSADHLIILWKNGERESGLRSLRLFQKLEENGDLYLAV
binds			B1
		binds	ARF1^Q71L (residues E17-K181), GTP-locked mutant (domain or fragment, ARF1, residues E17-K181 (N-terminal myristoylated amphipathic helix removed); source: E. coli BL21 DE3 star, purified (Ni-NTA, Superdex 75)) not shown
